Test results reported in patent publication US20200071424A1 (SHIONOGI, published 2020).
Numbering of substitutions follows the chain as printed.

B1: h53A11-S2 (antibody, V domains shown)
VH: QVQLVQSGAEVKKPGASVKVSCKASGYTFTDYTMHWVRQAPGQRLEWMGGINPYYGGTTYNEKFKDRVTITRDTSASTAYMELSSLRSEDTAVYYCAKGDYYGGSYNYWGQGTTVTVSS
VL: EIVMTQSLATLSVSPGERATLSCRASQDISNSLHWYQQKPGQAPRLLIYYASQSISGIPARFSGSGSGTEFTLTISSLQSEDFAVYYCQQSNSWPYTFGQGTKLEIK
B2: h53A11-S3 (antibody, V domains shown)
VH: B1 VH
VL: B1 VL with L8P, Y49K
B3: h55A1-S4 (antibody, V domains shown)
VH: QVQLVQSGSELKKPGASVKVSCKASGYTFTNYAMNWVRQAPGQGLEWMGWINTYSGVGTYAGDFKGRFVFSLDTSVSTAYLQISSLKAEDTAVYYCARRGFYGRRFFDVWGKGTTVTVSS
VL: DIVLTQSPASLAVSPGQRATITCKASQSVDYDVDSYMHWYQQKPGQPPKLLIYAASNLASGVPARFSGSGSGTDFTLTINPVEANDTANYYCQQTIEDPPTFGGGTKVEIK
notes: humanized
B4: h55A1-S6 (antibody, V domains shown)
VH: B3 VH with M34L, D63E
VL: B3 VL
notes: humanized
B5: h55A1-S7 (antibody, V domains shown)
VH: B3 VH with M34L, D63E
VL: B3 VL with Q94N
notes: humanized
B6: h55A1-S5 (antibody, V domains shown)
VH: B3 VH
VL: B3 VL with Q94N
notes: humanized
B7: h55A1-S3 (antibody, V domains shown)
VH: B3 VH with A33G, M34L, G58P, F101Y
VL: B3 VL with Q94N
notes: humanized
B8: h55A1-S2 (antibody, V domains shown)
VH: B3 VH with A33G, M34L, G58P, F101Y
VL: B3 VL
notes: humanized
B9: h16B3-S5 (antibody, V domains shown)
VH: EVQLVESGGGLVQPGGSLRLSCAASGFTFSGYTMSWVRQAPGKGLEWVSEISFARDRAFYPDTVKGRFTISRDNSKNTLYLQMNSLRAEDTAVYYCARLGGKNRDFWYFDLWGQGTTVTVSS
VL: DIVMTQSPDSLAVSLGERATINCRASESVEYYGTSLMQWYQQKPGQPPKLLIYAASNVESGVPDRFSGSGSGTDFTLTISSLQAEDVAVYYCQQSWKVPFTFGQGTKLEIK
notes: humanized
B10: h16B3-S1 (antibody, V domains shown)
VH: B9 VH with R98K, K102R, R104H, F106Y, L111V
VL: B9 VL
B11: h16B3-F1 (antibody, V domains shown)
VH: B9 VH with K102R, R104H, F106Y, L111V
VL: DIQMTQSPSSLSASVGDRVTITCRASESVEYYGTSLMQWYQQKPGKAPKLLIYAASNVESGVPSRFSGSGSGTDFTLTISSLQPEDFATYYCQQSWKVPFTFGQGTKLEIK
notes: humanized
B12: h16B3-F2 (antibody, V domains shown)
VH: B9 VH with K102R, R104H, F106Y, L111V
VL: EIVMTQSPATLSVSPGERATLSCRASESVEYYGTSLMQWYQQKPGQAPRLLIYAASNVESGIPARFSGSGSGTEFTLTISSLQSEDFAVYYCQQSWKVPFTFGQGTKLEIK
notes: humanized
B13: h16B3-S4 (antibody, V domains shown)
VH: B9 VH with R104H, L111V
VL: B9 VL with K97R
notes: humanized
B14: h16B3-S7 (antibody, V domains shown)
VH: B9 VH with G31A, E50D
VL: B9 VL
notes: humanized
B15: h16B3-S8 (antibody, V domains shown)
VH: B9 VH with G31A, E50D
VL: B9 VL with K97R
notes: humanized
B16: h16B3-S6 (antibody, V domains shown)
VH: B9 VH
VL: B9 VL with K97R
notes: humanized
B17: h16B3-S3 (antibody, V domains shown)
VH: B9 VH with R104H, L111V
VL: B9 VL
notes: humanized
B18: h13B3-S2 (antibody, V domains shown)
VH: QVQLVQSGAEVKKPGASVKVSCKASGYTFTEYTMHWVRQAPGQGLEWMGSINPYYGGTSYNEKFKDRVTSTRDTSISTAYMELSRLRSDDTVVYYCARYGNYVGYFDYWGQGTTVTVSS
VL: EIVLTQSPGTLSLSPGERATLSCRASSSVHYMYWYQQKPGQAPRLLIYYTSNLAPGIPDRFSGSGSGTDFTLTISRLEPEDFAVYYCQQFTSSPYTFGGGTKVEIK
B19: h13B3-S4 (antibody, V domains shown)
VH: B18 VH
VL: B18 VL with G9A, D59A, R76S
B20: h13B3-S3 (antibody, V domains shown)
VH: B18 VH with S70M, I76T, A79V, R85S, D89E, V92A
VL: B18 VL with G9A, D59A, R76S
B21: h23H8-S3 (antibody, V domains shown)
VH: QVQLVQSGAEVKKPGASVKVSCKASGYTFTDNTIHWVRQAPGQGLEWMGHINPYYGGTNNNEKFKDRVTMTRDTSISTAYMELSRLRSDDTAVYYCARKGIYYSSPFDYWGQGTTVTVSS
VL: DIQMTQSPSSLSASVGDRVTITCRASQDINNYLNWYQQKPGKAPKLLISYTSKLHSGVPSRFSGSGSGTDFTLTISSLQPEDFATYYCQQGNTLPFTFGQGTKLEIK

Legend:
[1] = target: T1, human [1-305]-mouse chimeric EL (human; mouse, UniProt Q9WVG5 306-500); test: cell-based or functional assay
T1 sequence: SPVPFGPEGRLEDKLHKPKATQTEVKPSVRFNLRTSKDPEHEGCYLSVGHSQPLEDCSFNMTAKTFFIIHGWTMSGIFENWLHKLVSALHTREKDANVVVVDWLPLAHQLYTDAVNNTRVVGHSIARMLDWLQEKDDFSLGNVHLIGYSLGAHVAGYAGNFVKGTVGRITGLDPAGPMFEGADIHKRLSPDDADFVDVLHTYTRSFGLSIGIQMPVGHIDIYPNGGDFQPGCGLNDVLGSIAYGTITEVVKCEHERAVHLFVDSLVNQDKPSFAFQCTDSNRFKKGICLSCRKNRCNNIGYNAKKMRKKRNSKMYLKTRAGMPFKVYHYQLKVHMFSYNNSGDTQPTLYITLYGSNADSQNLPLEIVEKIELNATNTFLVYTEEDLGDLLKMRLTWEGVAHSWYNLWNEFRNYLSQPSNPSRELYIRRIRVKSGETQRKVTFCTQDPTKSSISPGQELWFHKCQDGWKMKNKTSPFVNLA

[2] = target: T1, human [1-305]-mouse chimeric EL; test: Biacore; EL captured by anti-C2-tag Ab; bivalent fit
Experimental: The binding affinities of anti-EL antibodies were measured using Biacore. […] Then, anti-EL humanized antibodies were added and the binding affinities were calculated by bivalent fitting of BIAevaluation software.

Row | Binder | Neutralizing activity IC50 [1] | Kd [2] | koff [2] | kon [2]
1 | B1 | 2.7 nM |  |  | 
2 | B2 | 1.8 nM |  |  | 
3 | B3 | 1.1 nM | 3 nM | 0.00024 s⁻¹ | 80000 M⁻¹ s⁻¹
4 | B4 | 1.2 nM | 1.4 nM | 6.3e-05 s⁻¹ | 47000 M⁻¹ s⁻¹
5 | B5 | 1 nM | 5.1 nM | 0.00055 s⁻¹ | 110000 M⁻¹ s⁻¹
6 | B6 | 1.3 nM | 12 nM | 0.00033 s⁻¹ | 27000 M⁻¹ s⁻¹
7 | B7 | 1.2 nM | 4.2 nM | 0.00051 s⁻¹ | 120000 M⁻¹ s⁻¹
8 | B8 | 1.1 nM | 11 nM | 0.00037 s⁻¹ | 35000 M⁻¹ s⁻¹
9 | B9 | 1.2 nM | 1 nM | 5.7e-05 s⁻¹ | 54000 M⁻¹ s⁻¹
10 | B10 | 2.7 nM |  |  | 
11 | B11 | 2.3 nM | 5.2 nM | 0.0002 s⁻¹ | 38000 M⁻¹ s⁻¹
12 | B12 | 2.4 nM | 3.8 nM | 0.00011 s⁻¹ | 29000 M⁻¹ s⁻¹
13 | B13 | 1.7 nM | 3 nM | 0.00018 s⁻¹ | 61000 M⁻¹ s⁻¹
14 | B14 | 1.4 nM | 1.2 nM | 5.9e-05 s⁻¹ | 50000 M⁻¹ s⁻¹
15 | B15 | 1.4 nM | 0.78 nM | 4e-05 s⁻¹ | 52000 M⁻¹ s⁻¹
16 | B16 | 1 nM | 1 nM | 5.8e-05 s⁻¹ | 60000 M⁻¹ s⁻¹
17 | B17 | 1.9 nM | 4.5 nM | 0.00013 s⁻¹ | 30000 M⁻¹ s⁻¹
18 | B18 | 9 nM |  |  | 
19 | B19 | 2.6 nM |  |  | 
20 | B20 | 2.1 nM |  |  | 
21 | B21 | 2 nM |  |  | 
